Measured values taken from PMC11187563, “The importance of tyrosines in multimers of cyclic RGD nonapeptides: towards αvβ6-integrin targeted radiotherapeutics” (RSC Medicinal Chemistry, 2024).
Read-outs that look alike come from different tables or passages of the source.

Tests used:
[1] = Ex vivo biodistribution of 177Lu-labeled peptide tetramers in H2009 xenografted SCID mice; settings: CB17 SCID, mouse, iv, total radioactivity; for tissue uptake at 1.5 h / tissue to tissue ratio at 1.5 h: 90 min p.i.; for tissue uptake at 24 h / tissue to tissue ratio at 24 h: 154 pmol, 24 h p.i.; for tissue uptake at 72 h / tissue to tissue ratio at 72 h: 199 pmol, 3 d p.i.
Outline: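 SCID mice carried subcutaneous H2009 xenografts on the right shoulder. 177Lu-labeled conjugates were injected i.v., and ex vivo organ distribution was measured at two time points post-injection.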

[2] = SPECT imaging of H2009 tumor xenograft, ROI-based tumor uptake; type: in vivo; settings: SCID, mouse, iv, total radioactivity, i.v. injection of 36.5 MBq, scan time 1 h
Experimental: Fig. 6 Single-photon emission computed tomography (SPECT) of a SCID mouse bearing a human H2009 tumor xenograft on the right shoulder, recorded at 4 time points (1 h, 3 h, 24 h, and 72 h) after i.v. injection of 36.5 MBq of ^177Lu-Y8, scan time 1 h. Tumor position is indicated by white dotted circle. Adjacent figures denote ROI-based tumor uptakes in % IA mL^−1. TEXT PRINTED IN THE PICTURE: no label printed: % IA / mL: 2.8 (1 h p.i.); % IA / mL: 2.7 (3 h p.i.); % IA / mL: 2.4 (24 h p.i.); % IA / mL: 2.0 (72 h p.i.) DOUBTS OF THE COPYIST ABOUT THIS PICTURE: The picture prints no substance label. The unit % IA / mL is printed only at the colour scale bar, and assigning it to the numbers beside the dotted circles is assumed.
SPECT imaging was performed for 60 min per animal on a nanoScan SPECT/CT (Mediso, Budapest, Hungary) at different timepoints (1 h, 3 h, 24 h, 72 h) after intravenous injection of approx. 40 MBq [^177Lu]Lu-Y8 per animal (n = 2). Reconstruction, image analysis and quantification of SPECT data were performed using Nucline and Interview fusion software (both Mediso).

[3] = spleen, H2009 bearing SCID mice, read-out: Spleen %IA/g
[4] = stomach (empty), H2009 bearing SCID mice, read-out: Stomach (empty) %IA/g
[5] = tumor/pancreas, H2009 bearing SCID mice, read-out: tumor/organ ratio, Pancreas

Structure (SMILES): CC(C)C[C@@H]1NC(=O)[C@H](CC(=O)O)NC(=O)CNC(=O)[C@H](CCCNC(=N)N)NC(=O)[C@H](Cc2ccc(O)cc2)NC(=O)[C@H](CCCCNC(=O)CCc2cn(CCCNC(=O)CCP(=O)(O)CN3CCN(CP(=O)(O)CCC(=O)NCCCn4cc(CCC(=O)NCCCC[C@H]5C(=O)N[C@@H](Cc6ccc(O)cc6)C(=O)N[C@@H](CCCNC(=N)N)C(=O)NCC(=O)N[C@@H](CC(=O)O)C(=O)N[C@@H](CC(C)C)C(=O)N[C@@H](C)C(=O)N[C@@H](Cc6ccc(O)cc6)C(=O)N6CCC[C@@H]6C(=O)N5C)nn4)CCN(CP(=O)(O)CCC(=O)NCCCn4cc(CCC(=O)NCCCC[C@H]5C(=O)N[C@@H](Cc6ccc(O)cc6)C(=O)N[C@@H](CCCNC(=N)N)C(=O)NCC(=O)N[C@@H](CC(=O)O)C(=O)N[C@@H](CC(C)C)C(=O)N[C@@H](C)C(=O)N[C@@H](Cc6ccc(O)cc6)C(=O)N6CCC[C@@H]6C(=O)N5C)nn4)CCN(CP(=O)(O)CCC(=O)NCCCn4cc(CCC(=O)NCCCC[C@H]5C(=O)N[C@@H](Cc6ccc(O)cc6)C(=O)N[C@@H](CCCNC(=N)N)C(=O)NCC(=O)N[C@@H](CC(=O)O)C(=O)N[C@@H](CC(C)C)C(=O)N[C@@H](C)C(=O)N[C@@H](Cc6ccc(O)cc6)C(=O)N6CCC[C@@H]6C(=O)N5C)nn4)CC3)nn2)N(C)C(=O)[C@H]2CCCN2C(=O)[C@H](Cc2ccc(O)cc2)NC(=O)[C@H](C)NC1=O [Compound 177Lu-Y8, metal not drawn]
- tissue uptake at 1.5 h ([1]; spleen, 124 pmol, H2009 bearing SCID mice, read-out: Spleen %IA/g): 8.41 %ID/g
- tissue uptake at 24 h [1, 3]: 1.89 %ID/g
- tissue uptake at 72 h [1, 3]: 2.01 %ID/g
- tissue uptake at 1.5 h ([1]; spleen, + 50 nmol non-labeled compound 10 min prior to activity, n = 2, read-out: Spleen %IA/g, + 50 nmol cold): 4.99 %ID/g
- tissue uptake at 1.5 h ([1]; stomach (empty), 124 pmol, H2009 bearing SCID mice, read-out: Stomach (empty) %IA/g): 8.26 %ID/g
- tissue uptake at 24 h [1, 4]: 3.84 %ID/g
- tissue uptake at 72 h [1, 4]: 2.65 %ID/g
- tissue uptake at 1.5 h ([1]; stomach (empty), + 50 nmol non-labeled compound 10 min prior to activity, n = 2, read-out: Stomach (empty) %IA/g, + 50 nmol cold): 1.19 %ID/g
- tissue uptake at 24 h ([1]; tumor (H2009 xenograft), H2009 bearing SCID mice, read-out: Tumor H2009 %IA/g): 2.42 %ID/g
- tissue uptake at 1.5 h ([1]; tumor (H2009 xenograft), + 50 nmol non-labeled compound 10 min prior to activity, n = 2, read-out: Tumor H2009 %IA/g, + 50 nmol cold): 1.71 %ID/g
- tissue to tissue ratio at 72 h ([1]; tumor / adrenals, H2009 bearing SCID mice, read-out: tumor/organ ratio, Adrenals): 4.5
- tissue to tissue ratio at 24 h ([1]; tumor / blood, H2009 bearing SCID mice, read-out: tumor/organ ratio, Blood): 59.6
- tissue to tissue ratio at 72 h ([1]; tumor / bone, H2009 bearing SCID mice, read-out: tumor/organ ratio, Bone): 3.4
- tissue to tissue ratio at 24 h ([1]; tumor / heart (myocard), H2009 bearing SCID mice, read-out: tumor/organ ratio, Heart (myocard)): 15.2
- tissue to tissue ratio at 72 h ([1]; tumor / large intestine (empty), H2009 bearing SCID mice, read-out: tumor/organ ratio, Large intestine (empty)): 3.6
- tissue to tissue ratio at 24 h ([1]; tumor / liver, H2009 bearing SCID mice, read-out: tumor/organ ratio, Liver): 2.7
- tissue to tissue ratio at 24 h ([1]; tumor / lung, H2009 bearing SCID mice, read-out: tumor/organ ratio, Lung): 2.1
- tissue to tissue ratio at 72 h ([1]; tumor / muscle, H2009 bearing SCID mice, read-out: tumor/organ ratio, Muscle): 8.4
- tissue to tissue ratio at 72 h ([1]; tumor / small intestine (empty), H2009 bearing SCID mice, read-out: tumor/organ ratio, Small intestine (empty)): 11.4
- tissue to tissue ratio at 24 h ([1]; tumor / spleen, H2009 bearing SCID mice, read-out: tumor/organ ratio, Spleen): 1.4
- tissue to tissue ratio at 72 h ([1]; tumor / stomach (empty), H2009 bearing SCID mice, read-out: tumor/organ ratio, Stomach (empty)): 0.8
- tissue to tissue ratio at 1.5 h ([1]; tumor/adrenals, 124 pmol, H2009 bearing SCID mice, read-out: tumor/organ ratio, Adrenals): 8.9
- tissue to tissue ratio at 24 h ([1]; tumor/adrenals, H2009 bearing SCID mice, read-out: tumor/organ ratio, Adrenals): 10.2
- tissue to tissue ratio at 1.5 h ([1]; tumor/blood, 124 pmol, H2009 bearing SCID mice, read-out: tumor/organ ratio, Blood): 2.4
- tissue to tissue ratio at 72 h ([1]; tumor/blood, H2009 bearing SCID mice, read-out: tumor/organ ratio, Blood): 67
- tissue to tissue ratio at 1.5 h ([1]; tumor/bone, 124 pmol, H2009 bearing SCID mice, read-out: tumor/organ ratio, Bone): 1.8
- tissue to tissue ratio at 24 h ([1]; tumor/bone, H2009 bearing SCID mice, read-out: tumor/organ ratio, Bone): 3.6
- tissue to tissue ratio at 1.5 h ([1]; tumor/heart (myocard), 124 pmol, H2009 bearing SCID mice, read-out: tumor/organ ratio, Heart (myocard)): 5.9
- tissue to tissue ratio at 72 h ([1]; tumor/heart (myocard), H2009 bearing SCID mice, read-out: tumor/organ ratio, Heart (myocard)): 12.2
- tissue to tissue ratio at 1.5 h ([1]; tumor/large intestine (empty), 124 pmol, H2009 bearing SCID mice, read-out: tumor/organ ratio, Large intestine (empty)): 1.8
- tissue to tissue ratio at 24 h ([1]; tumor/large intestine (empty), H2009 bearing SCID mice, read-out: tumor/organ ratio, Large intestine (empty)): 1.8
- tissue to tissue ratio at 1.5 h ([1]; tumor/liver, 124 pmol, H2009 bearing SCID mice, read-out: tumor/organ ratio, Liver): 5.1
- tissue to tissue ratio at 72 h ([1]; tumor/liver, H2009 bearing SCID mice, read-out: tumor/organ ratio, Liver): 2.4
- tissue to tissue ratio at 1.5 h ([1]; tumor/lung, 124 pmol, H2009 bearing SCID mice, read-out: tumor/organ ratio, Lung): 1
- tissue to tissue ratio at 72 h ([1]; tumor/lung, H2009 bearing SCID mice, read-out: tumor/organ ratio, Lung): 2.2
- tissue to tissue ratio at 1.5 h ([1]; tumor/muscle, 124 pmol, H2009 bearing SCID mice, read-out: tumor/organ ratio, Muscle): 7.4
- tissue to tissue ratio at 24 h ([1]; tumor/muscle, H2009 bearing SCID mice, read-out: tumor/organ ratio, Muscle): 9.5
- tissue to tissue ratio at 1.5 h ([1]; tumor/pancreas, 124 pmol, H2009 bearing SCID mice, read-out: tumor/organ ratio, Pancreas): 14.3
- tissue to tissue ratio at 24 h [1, 5]: 18.4
- tissue to tissue ratio at 72 h [1, 5]: 14.9
- tissue to tissue ratio at 1.5 h ([1]; tumor/small intestine (empty), 124 pmol, H2009 bearing SCID mice, read-out: tumor/organ ratio, Small intestine (empty)): 2.1
- tissue to tissue ratio at 24 h ([1]; tumor/small intestine (empty), H2009 bearing SCID mice, read-out: tumor/organ ratio, Small intestine (empty)): 2.5
- tissue to tissue ratio at 1.5 h ([1]; tumor/spleen, 124 pmol, H2009 bearing SCID mice, read-out: tumor/organ ratio, Spleen): 0.7
- tissue to tissue ratio at 72 h ([1]; tumor/spleen, H2009 bearing SCID mice, read-out: tumor/organ ratio, Spleen): 1
- tissue to tissue ratio at 1.5 h ([1]; tumor/stomach (empty), 124 pmol, H2009 bearing SCID mice, read-out: tumor/organ ratio, Stomach (empty)): 0.7
- tissue to tissue ratio at 24 h ([1]; tumor/stomach (empty), H2009 bearing SCID mice, read-out: tumor/organ ratio, Stomach (empty)): 0.7
- tissue uptake per volume at 1 h ([2]; 1 h p.i.): 2.8 %ID/mL
- tissue uptake per volume at 3 h ([2]; 3 h p.i.): 2.7 %ID/mL
- tissue uptake per volume at 24 h ([2]; 24 h p.i.): 2.4 %ID/mL
- tissue uptake per volume at 72 h ([2]; 72 h p.i.): 2 %ID/mL
